# Results as given in IntAct's records for PubMed 16766694.
# B1: Pyridoxal 5'-phosphate synthase subunit PDX1.3 (Arabidopsis thaliana (Mouse-ear cress)), Q8L940 (parent)
# chain: MEGTGVVAVYGNGAITEAKKSPFSVKVGLAQMLRGGVIMDVVNAEQARIAEEAGACAVMALERVPADIRAQGGVARMSDPQMIKEIKQAVTIPVMAKARIGHFVEAQILEAIGIDYIDESEVLTLADEDHHINKHNFRIPFVCGCRNLGEALRRIREGAAMIRTKGEAGTGNIIEAVRHVRSVNGDIRVLRNMDDDEVFTFAKKLAAPYDLVMQTKQLGRLPVVQFAAGGVATPADAALMMQLGCDGVFVGSGIFKSGDPARRARAIVQAVTHYSDPEMLVEVSCGLGEAMVGINLNDEKVERFANRSE
# partner: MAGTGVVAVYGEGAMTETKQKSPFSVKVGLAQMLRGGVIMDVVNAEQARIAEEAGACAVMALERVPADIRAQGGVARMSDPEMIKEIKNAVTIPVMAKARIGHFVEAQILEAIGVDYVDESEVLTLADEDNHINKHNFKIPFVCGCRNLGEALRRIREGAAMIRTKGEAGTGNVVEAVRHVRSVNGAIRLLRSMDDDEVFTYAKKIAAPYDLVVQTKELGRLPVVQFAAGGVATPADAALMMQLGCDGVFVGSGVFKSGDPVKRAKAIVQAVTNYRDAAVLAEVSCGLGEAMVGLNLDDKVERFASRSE
# B2: Pyridoxal 5'-phosphate synthase subunit PDX1.3 (Arabidopsis thaliana (Mouse-ear cress)), Q8L940 (parent)
# chain: B1 chain
# partner: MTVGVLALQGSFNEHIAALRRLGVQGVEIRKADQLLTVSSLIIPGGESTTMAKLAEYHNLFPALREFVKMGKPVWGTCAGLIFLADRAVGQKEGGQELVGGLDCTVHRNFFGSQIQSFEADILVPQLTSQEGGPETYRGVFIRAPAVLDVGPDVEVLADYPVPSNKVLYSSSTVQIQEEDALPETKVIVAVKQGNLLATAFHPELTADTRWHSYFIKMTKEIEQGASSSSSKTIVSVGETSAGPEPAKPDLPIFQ
# B3: Pyridoxal 5'-phosphate synthase subunit PDX1.3 (Arabidopsis thaliana (Mouse-ear cress)), Q8L940 (parent)
# chain: B1 chain
# partner: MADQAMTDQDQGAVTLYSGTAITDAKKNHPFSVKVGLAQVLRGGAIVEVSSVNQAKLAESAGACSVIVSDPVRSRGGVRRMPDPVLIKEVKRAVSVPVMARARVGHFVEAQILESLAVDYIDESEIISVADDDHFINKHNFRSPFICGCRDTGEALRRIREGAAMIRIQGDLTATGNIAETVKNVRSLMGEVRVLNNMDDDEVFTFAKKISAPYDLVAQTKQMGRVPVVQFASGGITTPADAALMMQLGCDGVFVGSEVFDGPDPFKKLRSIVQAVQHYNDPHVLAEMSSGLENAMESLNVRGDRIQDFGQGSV
# Variants of: B1
# Conditions: with pdx11_arath PDX11, O80448
row,effect of a mutation on the interaction,Variant
1,disrupting interaction,G54S

# Variants of: B2
# Conditions: with pdx2_arath PDX2, Q8LAD0
row,effect of a mutation on the interaction,Variant
1,disrupting interaction,G54S

# Variants of: B3
# Conditions: with pdx12_arath PDX12, Q9ZNR6
row,effect of a mutation on the interaction,Variant
1,disrupting interaction,G54S
